Experimental data taken from patent publication US20250027114.

Experiments:
[1] = tested on: T1, E3-18-ABE8e (Neisseria meningitidis); test: cell_activity; conditions: PAM N4YNC average, E. coli ABE-PPA; 33% on N4YND
T1 sequence: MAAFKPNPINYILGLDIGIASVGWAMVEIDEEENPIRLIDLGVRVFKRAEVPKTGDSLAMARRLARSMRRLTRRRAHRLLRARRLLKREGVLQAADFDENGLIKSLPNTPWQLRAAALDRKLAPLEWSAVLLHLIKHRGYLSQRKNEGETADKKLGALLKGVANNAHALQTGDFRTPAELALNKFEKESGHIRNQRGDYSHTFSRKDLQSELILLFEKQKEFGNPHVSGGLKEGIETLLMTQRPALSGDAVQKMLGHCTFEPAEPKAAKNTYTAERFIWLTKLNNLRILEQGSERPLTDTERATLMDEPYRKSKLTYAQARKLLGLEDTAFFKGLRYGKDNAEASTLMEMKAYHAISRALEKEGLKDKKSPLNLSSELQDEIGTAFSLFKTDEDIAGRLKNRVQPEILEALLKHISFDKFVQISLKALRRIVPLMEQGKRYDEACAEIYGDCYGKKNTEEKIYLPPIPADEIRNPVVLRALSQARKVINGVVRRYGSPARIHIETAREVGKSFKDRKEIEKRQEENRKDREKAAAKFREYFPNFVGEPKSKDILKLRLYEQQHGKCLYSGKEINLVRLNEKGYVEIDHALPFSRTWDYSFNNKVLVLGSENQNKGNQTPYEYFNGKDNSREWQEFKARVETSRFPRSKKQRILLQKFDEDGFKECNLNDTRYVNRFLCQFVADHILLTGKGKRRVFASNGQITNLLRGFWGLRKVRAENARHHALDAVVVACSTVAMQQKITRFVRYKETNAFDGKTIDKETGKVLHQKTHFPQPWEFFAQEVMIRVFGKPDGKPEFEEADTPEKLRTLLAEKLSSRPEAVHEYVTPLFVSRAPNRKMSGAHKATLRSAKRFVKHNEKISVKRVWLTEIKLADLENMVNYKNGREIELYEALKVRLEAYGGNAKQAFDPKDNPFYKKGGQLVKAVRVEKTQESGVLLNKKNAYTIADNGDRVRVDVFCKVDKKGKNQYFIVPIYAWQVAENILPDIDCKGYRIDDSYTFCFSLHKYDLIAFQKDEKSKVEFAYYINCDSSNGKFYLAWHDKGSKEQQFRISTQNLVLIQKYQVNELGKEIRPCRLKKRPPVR

[2] = tested on: T2, Nme2Cas9 (Nme2-ABE8e) (Neisseria meningitidis); test: cell_activity; conditions: PAM N4YNC average, E. coli ABE-PPA; 14% on N4YND
T2 sequence: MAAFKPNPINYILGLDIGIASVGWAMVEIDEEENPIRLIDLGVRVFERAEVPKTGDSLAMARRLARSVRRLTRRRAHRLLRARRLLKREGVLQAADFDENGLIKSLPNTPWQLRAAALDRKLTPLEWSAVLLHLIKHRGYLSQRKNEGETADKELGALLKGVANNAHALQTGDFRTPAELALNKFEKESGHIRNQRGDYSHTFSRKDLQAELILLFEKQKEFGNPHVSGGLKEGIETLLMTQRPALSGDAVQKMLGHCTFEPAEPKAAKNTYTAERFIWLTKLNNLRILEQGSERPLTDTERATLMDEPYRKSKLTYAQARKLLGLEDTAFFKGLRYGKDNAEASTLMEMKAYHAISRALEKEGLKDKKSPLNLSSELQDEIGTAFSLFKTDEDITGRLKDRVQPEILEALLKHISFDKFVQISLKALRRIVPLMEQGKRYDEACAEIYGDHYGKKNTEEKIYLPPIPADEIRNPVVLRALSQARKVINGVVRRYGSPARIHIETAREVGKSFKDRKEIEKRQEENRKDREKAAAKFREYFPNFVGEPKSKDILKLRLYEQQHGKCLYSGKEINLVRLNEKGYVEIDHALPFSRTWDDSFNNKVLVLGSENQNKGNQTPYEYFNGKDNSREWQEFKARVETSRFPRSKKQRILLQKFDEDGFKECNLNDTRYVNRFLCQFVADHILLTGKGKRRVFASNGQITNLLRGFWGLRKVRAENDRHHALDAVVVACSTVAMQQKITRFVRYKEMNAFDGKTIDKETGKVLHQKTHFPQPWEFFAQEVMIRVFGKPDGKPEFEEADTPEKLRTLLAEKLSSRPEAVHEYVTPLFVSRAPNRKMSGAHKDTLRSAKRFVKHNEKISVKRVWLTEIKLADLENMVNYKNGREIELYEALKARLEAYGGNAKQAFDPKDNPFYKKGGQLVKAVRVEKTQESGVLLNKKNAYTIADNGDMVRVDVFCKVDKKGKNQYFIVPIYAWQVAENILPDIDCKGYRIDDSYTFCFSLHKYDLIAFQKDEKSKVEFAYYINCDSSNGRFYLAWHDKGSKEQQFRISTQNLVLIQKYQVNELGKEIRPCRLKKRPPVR

For “AUGGCCCAGACUGAGCACGUGAGGUUGUAGCUCCCUUUCUCAUUUCGGAAACGAAAUGAGAACCGUUGCUACAAUAAGGCCGUCUGAAAAGAUGUGCCGCAACGCUCUGCCCCUUAAAGCUUCUGCUUUAAGGGGCAUCGUUUA / ATGGCCCAGACTGAGCACGTGA / TCACGTGCTCAGTCTGGGCCAT [ABE-PPA sgRNA ; ABE-PPA protospacer library target]”, the activity (% A-to-G conversion) [1] was 61 and the activity (% A-to-G conversion) [2] was 18.
